# Where “and” joins values, the source holds several entries; their conditions need not be identical. Equal values may be shown once.
# T1: CEACAM1-HIS (Sino Biologics Inc.) (Homo sapiens (Human), UniProt P13688 35-428)
# T1 construct: bought; not shown: His tag
# T1 sequence: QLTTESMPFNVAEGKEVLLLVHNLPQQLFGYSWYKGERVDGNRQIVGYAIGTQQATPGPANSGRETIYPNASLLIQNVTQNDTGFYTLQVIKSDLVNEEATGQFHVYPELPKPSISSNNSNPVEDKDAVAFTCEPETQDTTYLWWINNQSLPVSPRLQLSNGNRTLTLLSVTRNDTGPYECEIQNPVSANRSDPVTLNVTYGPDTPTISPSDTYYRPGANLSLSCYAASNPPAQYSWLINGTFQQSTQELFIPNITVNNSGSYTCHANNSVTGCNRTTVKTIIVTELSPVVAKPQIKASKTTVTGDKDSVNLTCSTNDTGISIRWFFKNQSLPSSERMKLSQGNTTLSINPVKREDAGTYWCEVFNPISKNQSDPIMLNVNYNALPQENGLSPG
# T2: CEACAM1 (Sino Biological) (human, UniProt P13688 35-428, limits assumed)
# T2 construct: may be the same as CEACAM1-HIS; also called hCEACAM1; biotinylated soluble CEACAM1
# T2 sequence: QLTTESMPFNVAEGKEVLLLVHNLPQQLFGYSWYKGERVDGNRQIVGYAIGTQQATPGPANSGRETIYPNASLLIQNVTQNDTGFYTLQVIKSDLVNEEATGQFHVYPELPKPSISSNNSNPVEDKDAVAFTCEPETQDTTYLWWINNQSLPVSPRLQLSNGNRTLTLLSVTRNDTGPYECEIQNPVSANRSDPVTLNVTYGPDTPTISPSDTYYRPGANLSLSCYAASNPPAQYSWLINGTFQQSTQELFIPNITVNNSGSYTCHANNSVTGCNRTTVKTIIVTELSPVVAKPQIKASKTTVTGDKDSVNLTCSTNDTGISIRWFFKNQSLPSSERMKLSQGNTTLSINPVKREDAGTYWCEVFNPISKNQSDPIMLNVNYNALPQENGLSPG
# Legend:
# [1] = target: T1, CEACAM1-HIS (Sino Biologics Inc.); assay: SPR single-cycle, IgG on Protein A
# In short: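 Single-cycle kinetics at 25° C in HBS-P+ (pH 7.4), antibodies from HEK EBNA supernatants at 1 μg/mL captured on Protein A (~100 RU). CEACAM1 injected at 3.125–50 nM (2-fold, 5 points), 150 s association, 150 s dissociation. Reference-channel and blank-run subtraction applied.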
# [2] = target: T1, CEACAM1-HIS (Sino Biologics Inc.); assay: SPR multi-cycle, IgG on Protein A
# Protocol: As an alternative approach to assess the binding of the antibody combinations and the control antibodies to CEACAM1, a kinetic analysis was performed on a Biacore T200 running Biacore T200 Evaluation Software V2.0.1. All experiments were run at 25° C. with HBS-P+ running buffer (pH 7.4).
# For multi-cycle kinetic analysis purified antibody was immobilized at a protein concentration of 1 μg/mL in HBS-P+. At the start of each cycle, antibody was captured on Protein A to give an RU of ˜100 and the surface allowed to stabilize. Kinetic data was obtained at a flow rate of 35 μl/min to minimize any potential mass transfer effects. Multiple repeats of the blank (no CEACAM1) and a repeat of a single concentration of the analyte were programmed into the kinetic run in order to check the stability of both the surface and analyte over the kinetic cycles. For kinetic analysis, a 2-fold dilution series was selected from 100 to 1.5625 nM CEACAM1. The association phase of CEACAM1 was monitored initially for 180 seconds. In the subsequent experiment a longer association time (275 seconds) was used in order to better reach steady state. The dissociation phase was measured for 250 seconds. Regeneration of the Protein A surface was conducted using 2 injections of 10 mM glycine-HCL pH 1.5 at the end of each cycle.
# The signal from the reference channel Fc1 was subtracted from that of Fc2, Fc3 and Fc4 to correct for differences in non-specific binding to a reference surface, a global Rmax parameter was used in the 1-to-1 binding model. The relative KD compared to the chimeric parental antibody was calculated by dividing the KD of the Composite Human Antibody™ variants by that of the chimeric parental antibody on the same chip.
# [3] = target: T2, CEACAM1 (Sino Biological); assay: SPR single-cycle
# In short: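 Humanized affinity-matured IgGs from crude supernatants captured on Protein A to ~100 RU, with CEACAM1 analyte injected at 25–100 nM (three-point, two-fold) in HBS-P+ without regeneration. 200 s association per injection, 300 s single dissociation; reference-channel and blank subtracted.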
# [4] = target: T2, CEACAM1 (Sino Biological); assay: SPR single-cycle; one of the two experiments; the Parent of the other experiment reads 551 nM (r135)
Kd [1],Kd [2],koff [2],kon [2],relative KD to chimeric parental antibody [2] [ratio],Kd [3] [nM],fold better than Parent (KD) [3] [fold],Kd [4] [nM],Binder
47.6 nM and 43.2 nM,27.2 nM and 22.3 nM and 19.5 nM,0.0053 s⁻¹ and 0.00571 s⁻¹ and 0.00531 s⁻¹,195000 M⁻¹ s⁻¹ and 256000 M⁻¹ s⁻¹ and 272000 M⁻¹ s⁻¹,1,,,,"chimeric parental antibody VH0/Vκ0 (antibody, IgG4, V domains shown, IgG4 (S241P), kappa; also called Chimera; chimeric antibody) VH: EVQLVESGGGFVKPGGSLKLSCAASGFSFSDYYLYWVRQTPEKRLEWVATISVGGGNTSYPDSVKGRFTISRDNAKNNLYLQMSSLKSEDTAMYYCTRGLYYGPAWFAYWGQGTLVTVSA VL: not shown"
,,,,,551,1,159,"VH2 N56Q/Vκ4 S27(f)A IgG (antibody, V domains shown, IgG4 S241P, kappa; also called Parent; Parent IgG) VH: EVQLLESGGGLVQPGGSLRLSCAASGFSFSDYYLYWVRQAPGKGLEWVATISVGGGQTSYADSVKGRFTISRDNSKNTLYLQMNSLRAEDTAMYYCTRGLYYGPAWFAYWGQGTLVTVSS VL: not shown"
